Results on eight molecules are retold here after US20230035659A1, “Compositions and Methods for TTR Gene Editing and Treating ATTR Amyloidosis Comprising a Corticosteroid or Use Thereof” (Intellia Therapeutics, Inc., priority 2019, published 2023).

Strand notation (5' to 3'): a small letter for the sugar, then the base; units joined by * are phosphorothioate-linked, units joined directly phosphodiester-linked; [ ] holds rarer units or linkages, { } end groups; capitals alone tell only the bases. m = 2'-O-methyl; r = 2'-OH (RNA)

B1: G000493: TTR sgRNA modified sequence, Human, SEQ ID NO: 100; guide sequence of CR003368 (nucleic acid)
guide: mA*mA*mG*rUrGrCrCrUrUrCrCrArGrUrArArGrArUrUrGrUrUrUrUrArGrAmGmCmUmAmGmAmAmAmUmAmGmCrArArGrUrUrArArArArUrArArGrGrCrUrArGrUrCrCrGrUrUrArUrCrAmAmCmUmUmGmAmAmAmAmAmGmUmGmGmCmAmCmCmGmAmGmUmCmGmGmUmGmCmU*mU*mU*mU
B2: G000488: TTR sgRNA modified sequence, Human, SEQ ID NO: 95; guide sequence of CR003346 (nucleic acid)
guide: mA*mA*mA*rGrUrUrCrUrArGrArUrGrCrUrGrUrCrCrGrGrUrUrUrUrArGrAmGmCmUmAmGmAmAmAmUmAmGmCrArArGrUrUrArArArArUrArArGrGrCrUrArGrUrCrCrGrUrUrArUrCrAmAmCmUmUmGmAmAmAmAmAmGmUmGmGmCmAmCmCmGmAmGmUmCmGmGmUmGmCmU*mU*mU*mU
B3: G000500: TTR sgRNA modified sequence, Human, SEQ ID NO: 107; guide sequence of CR003337 (nucleic acid)
guide: mC*mC*mA*rGrUrCrCrArGrCrArArGrGrCrArGrArGrGrGrUrUrUrUrArGrAmGmCmUmAmGmAmAmAmUmAmGmCrArArGrUrUrArArArArUrArArGrGrCrUrArGrUrCrCrGrUrUrArUrCrAmAmCmUmUmGmAmAmAmAmAmGmUmGmGmCmAmCmCmGmAmGmUmCmGmGmUmGmCmU*mU*mU*mU
B4: G000568: TTR sgRNA modified sequence, Human, SEQ ID NO: 110; guide sequence of CR003391 (nucleic acid)
guide: mG*mG*mC*rUrGrUrCrGrUrCrArCrCrArArUrCrCrCrArGrUrUrUrUrArGrAmGmCmUmAmGmAmAmAmUmAmGmCrArArGrUrUrArArArArUrArArGrGrCrUrArGrUrCrCrGrUrUrArUrCrAmAmCmUmUmGmAmAmAmAmAmGmUmGmGmCmAmCmCmGmAmGmUmCmGmGmUmGmCmU*mU*mU*mU
B5: G000489: TTR sgRNA modified sequence, Human, SEQ ID NO: 96; guide sequence of CR003344 (nucleic acid)
guide: mU*mU*mU*rGrArCrCrArUrCrArGrArGrGrArCrArCrUrGrUrUrUrUrArGrAmGmCmUmAmGmAmAmAmUmAmGmCrArArGrUrUrArArArArUrArArGrGrCrUrArGrUrCrCrGrUrUrArUrCrAmAmCmUmUmGmAmAmAmAmAmGmUmGmGmCmAmCmCmGmAmGmUmCmGmGmUmGmCmU*mU*mU*mU
B6: G000572: TTR sgRNA modified sequence, Human, SEQ ID NO: 113; guide sequence of CR003385 (nucleic acid)
guide: mC*mC*mC*rCrUrArCrUrCrCrUrArUrUrCrCrArCrCrArGrUrUrUrUrArGrAmGmCmUmAmGmAmAmAmUmAmGmCrArArGrUrUrArArArArUrArArGrGrCrUrArGrUrCrCrGrUrUrArUrCrAmAmCmUmUmGmAmAmAmAmAmGmUmGmGmCmAmCmCmGmAmGmUmCmGmGmUmGmCmU*mU*mU*mU
B7: G000490: TTR sgRNA modified sequence, Human, SEQ ID NO: 97; guide sequence of CR003366 (nucleic acid)
guide: mA*mA*mA*rUrArGrArCrArCrCrArArArUrCrUrUrArCrGrUrUrUrUrArGrAmGmCmUmAmGmAmAmAmUmAmGmCrArArGrUrUrArArArArUrArArGrGrCrUrArGrUrCrCrGrUrUrArUrCrAmAmCmUmUmGmAmAmAmAmAmGmUmGmGmCmAmCmCmGmAmGmUmCmGmGmUmGmCmU*mU*mU*mU
B8: G000481: TTR sgRNA modified sequence, Human, SEQ ID NO: 88; guide sequence of CR003345 (nucleic acid)
guide: UCUAGAACUUUGACCAUCAGGUUUUAGAGCUAGAAAUAGCAAGUUAAAAUAAGGCUAGUCCGUUAUCAACUUGAAAAAGUGGCACCGAGUCGGUGCUUUU
modifications: sugars from the 5' end m3 r25 m12 r28 m32, backbone not given here; further chemistry not fully specified

One data set concerns TTR. Briefly: TTR editing dose response (EC50, maximum editing) in primary cyno hepatocytes treated with LNP formulated U-depleted Spy Cas9 mRNA and sgRNAs. It is filed as cell-based, cynomolgus monkey. As to conditions: LNP formulated U-depleted Spy Cas9 mRNA and human specific sgRNAs. In a few lines:
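Primary cyno hepatocytes, 24 h after plating, treated with LNPs (Cas9 mRNA plus sgRNA) preincubated 5 min in medium with 6% cyno serum; 8-point 3-fold doses from 300 ng mRNA. Lysed at 72 h; indel/substitution percentage by amplicon NGS, giving EC50 and maximum editing.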
Turning to B1, the “Max Editing” value came out at 61.15%.
On the same count and under the same terms, in the case of B2 it was 21.63%; in that of B3, 58.04%; in that of B4, 87.93%.
The same measure, in the same setting: the result for B5 reads 89.21%.
The same measure, in the same setting: the result for B6 reads 100.31%; that for B7, 90.76%; that for B8, 95.07%.

A further data set concerns TTR. Nature of the data set: TTR editing dose response (EC50, maximum editing) in primary human hepatocytes treated with LNP formulated U-depleted Spy Cas9 mRNA and sgRNAs. Format: cell-based. As to conditions: LNP formulated U-depleted Spy Cas9 mRNA and human specific sgRNAs, dose response. In a few lines:
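Primary human hepatocytes, plated 24 h earlier, got LNPs carrying Cas9 mRNA and sgRNA, preincubated 5 min in medium with 6% cyno serum. Dosing was an 8-point 3-fold series from 300 ng mRNA. At 72 h, NGS read indel/substitution frequency at the target, giving EC50 and maximum percent editing.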
Regarding B1, the “Max Editing” value turned out to be 63.95%.
The same measure, in the same setting: in the case of B2 it was 95.83%.
B3: the “Max Editing” value amounted to 88.70%.
Same read-out and setting: in the case of B4 it was 95.72%; in that of B5, 86.33%; in that of B6, 97.94%.
Consider B7, for which the “Max Editing” value came out at 94.16%.
The same measure, in the same setting: in the case of B8 it was 87.05%.

Another data set deals with TTR. Nature of the data set: TTR editing in primary human hepatocytes treated with LNP formulated Spy Cas9 mRNA (SEQ ID NO: 2) and sgRNAs, 12.5 ng mRNA. Format: cell-based. As to conditions: LNP formulated Spy Cas9 mRNA (SEQ ID NO: 2) and sgRNA, 12.5 ng mRNA, 3.9 nM sgRNA, 72 hours. How it is done: Primary liver hepatocytes. Primary human liver hepatocytes (PHH) and primary cynomolgus liver hepatocytes (PCH) (Gibco) were cultured per the manufacturer's protocol (Invitrogen, protocol 11.28.2012). In brief, the cells were thawed and resuspended in hepatocyte thawing medium with supplements (Gibco, Cat. CM7000) followed by centrifugation at 100 g for 10 minutes for human and 80 g for 4 minutes for cyno. The supernatant was discarded and the pelleted cells resuspended in hepatocyte plating medium plus supplement pack (Invitrogen, Cat. A1217601 and CM3000). Cells were counted and plated on Bio-coat collagen I coated 96-well plates (ThermoFisher, Cat. 877272) at a density of 33,000 cells/well for human or 60,000 cells/well for cyno (or 65,000 cells/well when assaying effects on TTR protein, described further below). Plated cells were allowed to settle and adhere for 6 or 24 hours in a tissue culture incubator at 37° C. and 5% CO2 atmosphere. After incubation cells were checked for monolayer formation and media was replaced with hepatocyte culture medium with serum-free supplement pack (Invitrogen, Cat. A1217601 and CM4000).
In general, the lipid nanoparticle components were dissolved in 100% ethanol with the lipid component of various molar ratios. The RNA cargos were dissolved in 25 mM citrate, 100 mM NaCl, pH 5.0, resulting in a concentration of RNA cargo of approximately 0.45 mg/mL. The LNPs were formulated with a lipid amine to RNA phosphate (N:P) molar ratio of about 4.5 or about 6, with the ratio of mRNA to gRNA at 1:1 by weight.
The LNPs were formed by microfluidic mixing of the lipid and RNA solutions using a Precision Nanosystems NanoAssemblr™ Benchtop Instrument, according to the manufacturer's protocol. A 2:1 ratio of aqueous to organic solvent was maintained during mixing using differential flow rates. After mixing, the LNPs were collected, diluted in water (approximately 1:1 v/v), held for 1 hour at room temperature, and further diluted with water (approximately 1:1 v/v) before final buffer exchange. The final buffer exchange into 50 mM Tris, 45 mM NaCl, 5% (w/v) sucrose, pH 7.5 (TSS) was completed with PD-10 desalting columns (GE). If required, formulations were concentrated by centrifugation with Amicon 100 kDa centrifugal filters (Millipore). The resulting mixture was then filtered using a 0.2 μm sterile filter. The final LNP was stored at −80° C. until further use.
Additional PCR was performed per the manufacturer's protocols (Illumina) to add chemistry for sequencing. The amplicons were sequenced on an Illumina MiSeq instrument. The reads were aligned to a reference genome (e.g., the human reference genome (hg38), the cynomologus reference genome (mf5), the rat reference genome (rn6), or the mouse reference genome (mm10)) after eliminating those having low quality scores. The resulting files containing the reads were mapped to the reference genome (BAM files), where reads that overlapped the target region of interest were selected and the number of wild type reads versus the number of reads which contain an insertion, substitution, or deletion was calculated.
The editing percentage (e.g., the “editing efficiency” or “percent editing” or “indel frequency”) is defined as the total number of sequence reads with insertions/deletions (“indels”) or substitutions over the total number of sequence reads, including wild type.
Lipid nanoparticle formulations of modified sgRNAs targeting human TTR and the cyno matched sgRNA sequences were tested on primary human hepatocytes and primary cyno hepatocytes in a dose response curve. Primary human and cyno hepatocytes were plated as described in Example 1. Both cell lines were incubated at 37° C., 5% CO2 for 24 hours prior to treatment with LNPs. The LNPs used in the experiments detailed in Tables 18-21 were prepared using the Nanoassemblr™ procedure, each containing the specified sgRNA and Cas9 mRNA (SEQ ID NO:2), each having Lipid. […]
Consider B1, for which the “12.5 ng mRNA, 3.9 nM sgRNA, Avg % Edit” value was 7.33%.
Still for that read-out and setting: the result for B2 reads 44.80%; that for B3, 23.57%; that for B4, 54.60%.
Still for that read-out and setting: the result for B5 reads 16.85%; that for B6, 55.45%.
Take B7: the “12.5 ng mRNA, 3.9 nM sgRNA, Avg % Edit” value came out at 10.53%.
On the same count and under the same terms, the result for B8 reads 24.37%.
